Article PMC9131517, “Enzymatic N-Allylation of Primary and Secondary Amines Using Renewable Cinnamic Acids Enabled by Bacterial Reductive Aminases” (ACS Sustainable Chemistry & Engineering, 2022)

Experiments:
Test in all cases: initial rate of NADPH consumption
Assay type in all cases: biochemical, compost metagenome
Conditions in all cases: 80 mM cyclopropylamine, 0.3 mM NADPH, pH 7.5 (100 mM NaPi), 30 °C
[1] = substrate: O=C/C=C/c1ccccc1
Text: (§1) initial rate of NADPH consumption on BacRedAm

[2] = substrate: O=CCCc1ccccc1
Text: as §1

[3] = substrate: O=C1CCCCC1
Text: as §1

B1: BacRedAm (compost metagenome) (protein)
chain: MREPIVSAHTERAVESRGADRGSAVTVIGLGSMGSALAGAVLEAGYPTTVWNRTAGKAEPLVRRGAARAATVAEAVSASPTVIACVLDYRALREILSTAGDALAGRTVVNLTNGTPTEARETAAWVEGHGARYLDGGIMAVPEMIGGAESLVLYSGSAEAFETVEPVLRRFGSAMYLGADPGLASLHDLALLAGMYGLFAGFLHAVALVGTEGVRATEFTSSLLIPWLQAMTATLPEAAAQIDAGDYAATGSRLDMQAVALANIVEASRSQGIRPDLMLPIQALVERRVAKGGGGEDIAAVVEEVRG
notes: recombinant, expressed in E. coli BL21, purified
[1]
  Km: 2.58 mM
  kcat: 0.11 s⁻¹
[2]
  Km: 2.98 mM
  kcat: 1.45 s⁻¹
[3]
  Km: 13.32 mM
  kcat: 5.12 s⁻¹
